This assay addresses EB1 (competitive binding assay, source not named) (UniProt Q61166). Nature of the assay: competitive binding assay; data not shown; p104_(554–593) as competitor of EB1 binding to recombinant p104.
UniProt Q61166, sequence (Q61166 whole entry): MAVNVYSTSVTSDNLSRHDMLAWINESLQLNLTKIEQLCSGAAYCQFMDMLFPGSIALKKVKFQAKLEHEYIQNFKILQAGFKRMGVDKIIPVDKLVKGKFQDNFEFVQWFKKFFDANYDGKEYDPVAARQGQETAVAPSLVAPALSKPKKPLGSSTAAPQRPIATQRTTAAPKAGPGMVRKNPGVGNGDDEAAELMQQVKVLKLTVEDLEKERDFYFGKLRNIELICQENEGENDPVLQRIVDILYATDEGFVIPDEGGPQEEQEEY

Turning to “p104_(554–593) (soluble 40 aa fragment of p104; recombinant form GFP-p104_(554–593)) (domain or fragment)”, the molar excess for 50% inhibition (fold molar excess) turned out to be 3.
